Reference: patent publication US20090124564A1 (YEDA RESEARCH AND DEVELOPMENT, published 2009)

Biological target: T1, mouse BCL-XL (mouse, UniProt Q64373 1-233)
T1 construct: whole, on cells; In mitochondria of FL5.12-BCL-XL cells
Test: BSOCOES cross-linking in TNFα-treated FL5.12-BCL-XL cells, excised 45 kDa gel section, alkaline reversal, Western blots
Description: FIG. 16a-FL5.12-BCL-XL cells were induced for 5 hours in the presence TNFα/CHX (lanes 3 and 4) or were remained un-induced (lanes 1 and 2), following which mitochondria were prepared from the cells and were treated with the BSOCOES cross-linker (+) (lanes 2 and 4) or remained untreated (−) (lanes 1 and 3). At the end of the incubation, the membranes were lysed and were size-fractionated by SDS-PAGE and immunoblotted using anti-BID Abs. FIGS. 16b-d—The experiment presented in FIG. 16a was repeated and the gel sections corresponding to the position of the 45 kDa band in lanes 3 and 4 (FIG. 16a; marked by boxes) were excised, incubated in alkaline conditions, and later resolved as described in FIGS. 12a-c. Lane 1—excised gel band from lane 3 of the gel presented in FIG. 16a; lane 2—excised gel band from lane 4 of the gel presented in FIG. 16a. […] The asterisk marks cross-reactive substances that might have been released from the gel sections.
To assess whether this band represented a complex between tBID (15 kDa) and BCL-XL (30 kDa), the experiment was repeated and the gel sections corresponding to the position of the 45 kDa band in lanes 3 and 4 (marked by boxes in FIG. 16a) were excised, incubated in alkaline conditions, and later resolved as described in Example 7, hereinabove and in FIGS. 12a-c.

T1 sequence (Q64373 whole entry): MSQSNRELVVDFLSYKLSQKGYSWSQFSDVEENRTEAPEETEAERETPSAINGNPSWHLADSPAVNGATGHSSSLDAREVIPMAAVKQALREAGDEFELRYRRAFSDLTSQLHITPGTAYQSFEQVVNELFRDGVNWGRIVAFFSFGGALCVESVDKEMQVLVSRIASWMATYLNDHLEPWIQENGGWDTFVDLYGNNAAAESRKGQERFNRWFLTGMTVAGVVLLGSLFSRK

- binding result: binds
B1: tBID, endogenous, in TNFα/CHX-treated FL5.12 cells (other)
chain: GSQASRSFNQGRIEPDSESQEEIIHNIARHLAQIGDEMDHNIQPTLVRQLAAQFMNGSLSEEDKRNCLAKALDEVKTAFPRDMENDKAMLIMTMLLAKKVASHAPSLLRDVFHTTVNFINQNLFSYVRNLVRNEMD
notes: FL5.12 is a murine cell line; also called endogenous tBID
